Experimental data published in patent US20200199241A1 (Chugai, published 2020).
Numbering of substitutions follows the chain as printed. In names and notes the source's numbering stands. Each block holds one binder with its values, some of them ahead of it.

Tests used:
[1] = target: T1, soluble human IL-6 receptor (human, UniProt P08887 20-357); experiment: Biacore SPR, 3 uM CaCl2, pH 7.4, 37C, estimated
T1 construct: also called hsIL-6R
T1 sequence: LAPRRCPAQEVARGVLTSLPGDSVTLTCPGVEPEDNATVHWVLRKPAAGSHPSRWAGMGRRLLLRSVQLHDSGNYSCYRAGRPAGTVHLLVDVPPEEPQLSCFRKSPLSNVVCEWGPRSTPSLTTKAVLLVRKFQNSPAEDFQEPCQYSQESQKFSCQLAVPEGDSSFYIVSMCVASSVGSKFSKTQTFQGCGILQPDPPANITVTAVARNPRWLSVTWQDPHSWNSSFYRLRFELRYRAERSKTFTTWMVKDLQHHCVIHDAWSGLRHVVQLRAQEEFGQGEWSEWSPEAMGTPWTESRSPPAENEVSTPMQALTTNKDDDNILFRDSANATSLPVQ

[2] = target: T1, soluble human IL-6 receptor; experiment: Biacore SPR, 3 uM CaCl2, pH 7.4, 37C, estimated from Req and Rmax
[3] = target: T2, human FcRn (soluble human FcRn complexed with β2-microglobulin) (human, UniProt P61769 21-119, limits assumed); experiment: SPR, antibody captured by Protein L, human FcRn as analyte, pH 7.0, 25 C
T2 construct: also called hFcRn

human FcγRIIb [4] = target: T3, human FcγRIIb (human, UniProt P31994 43-217, limits assumed); experiment: SPR, antibody captured by Protein L, human FcγR as analyte, pH 7.4, 25 C
T3 construct: also called hFcgRIIb; FcγIIB
T3 sequence: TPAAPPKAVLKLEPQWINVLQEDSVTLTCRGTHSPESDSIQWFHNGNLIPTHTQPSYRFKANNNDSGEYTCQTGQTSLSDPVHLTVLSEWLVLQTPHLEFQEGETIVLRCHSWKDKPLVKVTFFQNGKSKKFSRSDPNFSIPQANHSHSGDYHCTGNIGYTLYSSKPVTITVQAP

human FcγRIa [5] = target: T4, human FcγRIa (human, UniProt P12314 16-292, limits assumed); experiment: as above
T4 construct: also called hFcgRIa; hFcgRI

human FcγRIIa(R) [6] = target: T5, human FcγRIIa(R) (human, UniProt P12318 36-217); experiment: as above
T5 construct: also called hFcgRIIa(R); FcγRIIa type R
T5 chain: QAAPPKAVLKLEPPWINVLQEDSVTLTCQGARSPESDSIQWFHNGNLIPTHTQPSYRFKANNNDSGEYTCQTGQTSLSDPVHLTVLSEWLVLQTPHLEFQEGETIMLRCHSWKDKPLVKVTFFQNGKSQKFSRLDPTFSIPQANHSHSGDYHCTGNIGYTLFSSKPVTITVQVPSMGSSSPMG

human FcγRIIa(H) [7] = target: T6, human FcγRIIa(H) (human, UniProt P12318 36-217); experiment: as above
T6 construct: also called hFcgRIIa(H); FcγRIIa type H
T6 sequence: T5 chain with R133H

human FcγRIa [8] = target: T7, human FcγRIa (human, UniProt P12314 16-292, limits assumed); experiment: SPR, antibody captured by Protein A, FcγR analyte, 1:1 Langmuir fit
T7 construct: also called FcgRIa; hFcgRIa

human FcγRIIa(R) [9] = target: T8, human FcγRIIa(R) (human, UniProt P12318 36-217); experiment: as above
T8 construct: also called FcgRIIaR; hFcgRIIa(R)
T8 chain: T5 chain

human FcγRIIa(H) [10] = target: T9, human FcγRIIa(H) (human, UniProt P12318 36-217); experiment: as above
T9 construct: also called FcgRIIaH; hFcgRIIa(H)
T9 sequence: T5 chain with R133H

human FcγRIIb [11] = target: T10, human FcγRIIb (human, UniProt P31994 43-217, limits assumed); experiment: as above
T10 construct: also called FcgRIIb; hFcgRIIb
T10 sequence: T3 sequence

human FcγRIa [12] = target: T7, human FcγRIa; experiment: SPR
human FcγRIIa(R) [13] = target: T8, human FcγRIIa(R); experiment: SPR
human FcγRIIa(H) [14] = target: T9, human FcγRIIa(H); experiment: SPR
human FcγRIIb [15] = target: T10, human FcγRIIb; experiment: SPR
human FcγRIIa(H) [16] = target: T9, human FcγRIIa(H); experiment: SPR, antibody captured by Protein A, FcγR analyte; * calculated with Equation 5
human FcγRIa [17] = target: T11, human FcγRIa (human, UniProt P12314 16-292, limits assumed); experiment: SPR (Biacore), antibody captured, FcγR as analyte
T11 construct: also called CD64

human FcγRIIa type R = target: T12, human FcγRIIa type R (human, UniProt P12318 36-217); experiment: SPR (Biacore), antibody captured, FcγR as analyte
T12 construct: also called FcγRIIaR; FcγRIIa(R)
T12 chain: T5 chain

human FcγRIIa type H = target: T13, human FcγRIIa type H (human, UniProt P12318 36-217); experiment: SPR (Biacore), antibody captured, FcγR as analyte
T13 construct: also called FcγRIIaH; FcγRIIa(H)
T13 sequence: T5 chain with R133H

human FcγRIIb [18] = target: T14, human FcγRIIb (human, UniProt P31994 43-217, limits assumed); experiment: SPR (Biacore), antibody captured, FcγR as analyte
T14 construct: also called FcγIIB
T14 sequence: T3 sequence

human FcγRIIb [19] = target: T14, human FcγRIIb; experiment: SPR (Biacore); ratio against parent IL6R-F11/IL6R-L
human FcγRIIb [20] = target: T14, human FcγRIIb; experiment: SPR (Biacore); KD for FcγRIIaH divided by KD for FcγRIIb of the same antibody
human FcγRIIb [21] = target: T14, human FcγRIIb; experiment: SPR (Biacore); KD for FcγRIIaR divided by KD for FcγRIIb of the same antibody
human FcγRIIb [22] = target: T3, human FcγRIIb; experiment: SPR, antibody captured on the chip, FcγR as analyte, HBS-EP+, 25 C; amount bound corrected for captured antibody
human FcγRIa [23] = target: T4, human FcγRIa; experiment: as above
human FcγRIIa(R) [24] = target: T5, human FcγRIIa(R); experiment: as above
human FcγRIIa(H) [25] = target: T6, human FcγRIIa(H); experiment: as above

- Kd [1]: ≥ 31000 nM
- Kd [2]: ~31000 nM
B1: 6RL#9-IgG1 (antibody, V domains shown, not shown: a dimerising Fc or GST)
VH: QVQLVQSGAEVKKPGASVKVSCKASGYTFTSYYMHWVRQAPGQGLEWMGIINPSGGSTSYAQKFQGRVTMTRDTSTSTVYMELSSLRSEDTAVYYCARDDPGGGEYYFDYWGQGTLVTVSS
VL: QSVLTQPPSVSGAPGQRVTISCTGSRSNMGAGYDVHWYQLLPGAAPKLLISHNTHRPSGVPDRFSGSKSGASASLAITGLQAEDEADYYCQSHDSSLSAVVFGGGTKLTVLS

- Kd [3]: 35 nM
- BINDING AMOUNT (RU) (human FcγRIIb [4]): -1 RU
- BINDING AMOUNT (RU) (human FcγRIa [5]): -0.4 RU
- BINDING AMOUNT (RU) (human FcγRIIa(R) [6]): -1 RU
- BINDING AMOUNT (RU) (human FcγRIIa(H) [7]): -0.8 RU
B2: VH3/L(WT)-IgG1-F763 (antibody, name in EU numbering)
heavy: QVQLQESGPGLVKPSETLSLTCAVSGHSISHDHAWSWVRQPPGEGLEWIGFISYSGITNYNPSLQGRVTISRDNSKNTLYLQMNSLRAEDTAVYYCARSLARTTAMDYWGEGTLVTVSSASTKGPSVFPLAPSSKSTSGGTAALGCLVKDYFPEPVTVSWNSGALTSGVHTFPAVLQSSGLYSLSSVVTVPSSSLGTQTYICNVNHKPSNTKVDKKVEPKSCDKTHTCPPCPAPELRGGPKVFLFPPKPKDTLYISRTPEVTCVVVDVSHEDPEVKFNWYVDGVEVHEAKTKPREEQYNSTYRVVSVLQVLHADWLNGKEYKCKVSNKALPAPIEKTISKAKGQPREPQVYTLPPSRDELTKNQVSLTCLVKGFYPSDIAVEWESNGQPENNYKTTPPVLDSDGSFFLYSKLTVDKSRWQQGNVFSCSVMHEALHYHYTQKSLSLSP
light: not shown
notes: copies: 2 + 2

- Kd (human FcγRIa [8]): 0.34 nM
- Kd (human FcγRIIa(R) [9]): 1200 nM
- Kd (human FcγRIIa(H) [10]): 770 nM
- Kd (human FcγRIIb [11]): 5300 nM
B3: IL6R-G1d/IL6R-L (antibody, human IgG1)
heavy: not shown
light: DIQMTQSPSSLSASVGDRVTITCRASQDISSYLNWYQQKPGKAPKLLIYYTSRLHSGVPSRFSGSGSGTDFTFTISSLQPEDIATYYCQQGNTLPYTFGQGTKVEIK
notes: anti-human IL-6 receptor, G1d constant region; copies: 2 + 2

- relative KD (KD of IgG1/KD of variant) (human FcγRIa [12]): 0.047 fold
- relative KD (KD of IgG1/KD of variant) (human FcγRIIa(R) [13]): 0.1 fold
- relative KD (KD of IgG1/KD of variant) (human FcγRIIa(H) [14]): 0.014 fold
- relative KD (KD of IgG1/KD of variant) (human FcγRIIb [15]): 4.8 fold
- Kd (human FcγRIa [8]): 7.3 nM
- Kd (human FcγRIIa(R) [9]): 12000 nM
- Kd (human FcγRIIb [11]): 1100 nM
- Kd (human FcγRIIa(H) [16]): 56000 nM
B4: IL6R-G1d_v1/IL6R-L (antibody, human IgG1)
heavy: not shown
light: B3 light
notes: P238D (EU numbering) in IL6R-G1d; also called IgG1-v1; copies: 2 + 2

- Kd (human FcγRIa [17]): 0.9 nM
- Kd (human FcγRIIa type R): 5000 nM
- Kd (human FcγRIIa type H): 5000 nM
- Kd (human FcγRIIb [18]): 6800 nM
- KD(IIb) of parent polypeptide/KD(IIb) of altered polypeptide (human FcγRIIb [19]): 1
- KD(IIaH)/KD(IIb) (human FcγRIIb [20]): 0.7
- KD(IIaR)/KD(IIb) (human FcγRIIb [21]): 0.7
B5: IL6R-F11/IL6R-L (antibody, human IgG1)
heavy: not shown
light: B3 light
notes: IL6R-G1d with M252Y/N434Y (EU numbering)

- relative KD (KD of IgG1/KD of variant) (human FcγRIa [12]): 1.8 fold
- relative KD (KD of IgG1/KD of variant) (human FcγRIIa(R) [13]): 522 fold
- relative KD (KD of IgG1/KD of variant) (human FcγRIIa(H) [14]): 0.51 fold
- relative KD (KD of IgG1/KD of variant) (human FcγRIIb [15]): 408 fold
- Kd (human FcγRIa [8]): 0.19 nM
- Kd (human FcγRIIa(R) [9]): 2.3 nM
- Kd (human FcγRIIa(H) [10]): 1500 nM
- Kd (human FcγRIIb [11]): 13 nM
B6: IL6R-G1d_v3/IL6R-L (antibody, human IgG1)
heavy: not shown
light: B3 light
notes: S267E/L328F (EU numbering) in IL6R-G1d; also called IgG1-v3; copies: 2 + 2

- relative KD (KD of IgG1/KD of variant) (human FcγRIa [12]): 0.74 fold
- relative KD (KD of IgG1/KD of variant) (human FcγRIIa(R) [13]): 0.41 fold
- relative KD (KD of IgG1/KD of variant) (human FcγRIIa(H) [14]): 0.064 fold
- relative KD (KD of IgG1/KD of variant) (human FcγRIIb [15]): 2.3 fold
- Kd (human FcγRIa [8]): 0.46 nM
- Kd (human FcγRIIa(R) [9]): 2900 nM
- Kd (human FcγRIIb [11]): 2300 nM
- Kd (human FcγRIIa(H) [16]): 12000 nM
B7: IL6R-G1d_v2/IL6R-L (antibody, human IgG1)
heavy: not shown
light: B3 light
notes: L328E (EU numbering) in IL6R-G1d; also called IgG1-v2; copies: 2 + 2

- Kd [1]: ≥ 34000 nM
- Kd [2]: ~34000 nM
B8: FH4-IgG1 (antibody, V domains shown)
VH: QVQLVQSGAEVKKPGSSVKVSCKASGGTFSSYAISWVRQAPGQGLEWMGGIIPIFGTANYAQKFQGRVTITADESTSTAYMELSSLRSEDTAVYYCARERDYYDSSGYYDAFDIWGQGTMVTVSS
VL: ETTVTQSPSFLSASVGDRVTITCITTTDIDDDMNWFQQEPGKAPKLLISEGNILRPGVPSRFSSSGYGTDFTLTISKLQPEDFATYYCLQSDNLPFTFGQGTKLEIKR

- relative binding activity (GpH7-G1d/GpL16-k0 = 100) (human FcγRIIb [22]): 100
- relative binding activity (GpH7-G1d/GpL16-k0 = 100) (human FcγRIa [23]): 100
- relative binding activity (GpH7-G1d/GpL16-k0 = 100) (human FcγRIIa(R) [24]): 100
- relative binding activity (GpH7-G1d/GpL16-k0 = 100) (human FcγRIIa(H) [25]): 100
B9: GpH7-G1d/GpL16-k0 (antibody, human IgG1)
heavy: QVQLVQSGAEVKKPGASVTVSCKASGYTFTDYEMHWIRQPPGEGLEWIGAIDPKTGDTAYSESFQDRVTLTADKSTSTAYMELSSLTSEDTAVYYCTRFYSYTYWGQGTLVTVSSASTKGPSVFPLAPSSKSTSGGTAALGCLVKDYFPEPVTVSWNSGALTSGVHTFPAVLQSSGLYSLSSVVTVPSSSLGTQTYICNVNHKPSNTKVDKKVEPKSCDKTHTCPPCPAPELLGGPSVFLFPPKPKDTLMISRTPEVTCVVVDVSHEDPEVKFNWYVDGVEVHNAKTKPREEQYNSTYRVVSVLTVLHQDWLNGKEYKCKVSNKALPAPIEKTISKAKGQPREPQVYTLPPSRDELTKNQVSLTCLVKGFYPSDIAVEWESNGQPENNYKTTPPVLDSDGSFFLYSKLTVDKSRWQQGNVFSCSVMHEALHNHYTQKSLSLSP
light: DIVMTQSPLSLPVTPGEPASISCQASESLVHSNRNTYLHWYLQKPGQSPQLLIYKVSNRFSGVPDRFSGSGSGTDFTLKISRVEAEDVGVYYCSQNTHVPPTFGQGTKVEIE
notes: anti-glypican-3 antibody; G1d is IgG1 with Gly and Lys deleted from the C terminus; copies: 2 + 2

- relative binding activity (GpH7-G1d/GpL16-k0 = 100) (human FcγRIIb [22]): 88
- relative binding activity (GpH7-G1d/GpL16-k0 = 100) (human FcγRIa [23]): 109
- relative binding activity (GpH7-G1d/GpL16-k0 = 100) (human FcγRIIa(R) [24]): 94
- relative binding activity (GpH7-G1d/GpL16-k0 = 100) (human FcγRIIa(H) [25]): 92
B10: GpH7-B3/GpL16-k0 (antibody, human IgG1)
heavy: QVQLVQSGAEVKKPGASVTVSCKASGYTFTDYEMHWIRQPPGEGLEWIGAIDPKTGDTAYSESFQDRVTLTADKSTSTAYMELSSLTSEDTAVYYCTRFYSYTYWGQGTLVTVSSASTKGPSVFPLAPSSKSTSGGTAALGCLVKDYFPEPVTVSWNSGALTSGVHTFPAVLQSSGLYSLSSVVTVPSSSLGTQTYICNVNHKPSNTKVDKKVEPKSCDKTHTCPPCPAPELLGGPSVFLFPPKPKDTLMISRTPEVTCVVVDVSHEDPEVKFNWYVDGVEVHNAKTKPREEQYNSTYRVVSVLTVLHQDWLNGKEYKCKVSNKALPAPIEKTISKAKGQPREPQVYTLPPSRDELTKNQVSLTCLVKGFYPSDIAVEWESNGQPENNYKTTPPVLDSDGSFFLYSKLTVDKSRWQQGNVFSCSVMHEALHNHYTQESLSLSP
light: B9 light
notes: anti-glypican-3 antibody, constant region G1d with K439E; copies: 2 + 2
